± gives the uncertainty stated by the source.

First the molecules themselves.
B1: Ras GTPase-activating protein 1, residues 281 to 341; numbered along this chain, P20936 (parent)
chain: RRRVRAILPYTKVPDTDEISFLKGDMFIVHNELEDGWMWVTNLRTDEQGLIVEDLVEEVGR

In this data set the parent is B1. Nature of the data set: abundance fitness (aPCA) (normalised: wild type 0, dead -1); higher = more abundant; growth selection in yeast, the domain comes from the species named. As to conditions: Homo sapiens.
Regarding RRRVRAILPYTKVPDTDEISFLKGDMFIVHNELEDGWMWVTNLRTDEQGLIVEDLVEWVGR [E58W], the abundance fitness is -0.106 ± 0.061.

Consider RRRVRAILPYTKVPDTDEISFLKGDMFIVHNELEDGWMWVTNLRTDEQGLIVEDLVETVGR [E58T], for which the abundance fitness was -0.023 ± 0.039.

On to RRRVRAILPYTKVPDTDEISFLKGDMFIVHNELEDGWMWTTNLRTDEQGLIVEDLVEEVGR [V40T], for which the abundance fitness was -0.672 ± 0.054.

RWRVRAILPYTKVPDTDEISFLKGDMFIVHNELEDGWMWVTNLRTDEQGLIVEDLVEEVGR [R2W]: the abundance fitness is -0.371 ± 0.055.

Consider RRRVRAILPYTKVPDTDEISFLKGDMFIVHNELEDGWMDVTNLRTDEQGLIVEDLVEEVGR [W39D], for which the abundance fitness is -0.226 ± 0.023.

For RRRVRAILPYTKVPDFDEISFLKGDMFIVHNELEDGWMWVTNLRTDEQGLIVEDLVEEVGR [T16F], the abundance fitness is -0.752 ± 0.04.

For the variant RRRVRAILPYTKVPDLDEISFLKGDMFIVHNELEDGWMWVTNLRTDEQGLIVEDLVEEVGR [T16L], the abundance fitness is -0.973 ± 0.056.

For RRRVRAILPYTKVPDTDEISFLKGDMFIVHNELEDGWSWVTNLRTDEQGLIVEDLVEEVGR [M38S], the abundance fitness was -0.451 ± 0.029.

Turning to RRRVRAILPYTKVPDTDEISFLKGDMFIVHNELEDGWNWVTNLRTDEQGLIVEDLVEEVGR [M38N], the abundance fitness is -0.623 ± 0.042.

Turning to RRQVRAILPYTKVPDTDEISFLKGDMFIVHNELEDGWMWVTNLRTDEQGLIVEDLVEEVGR [R3Q], the abundance fitness was -0.066 ± 0.06.

With RRMVRAILPYTKVPDTDEISFLKGDMFIVHNELEDGWMWVTNLRTDEQGLIVEDLVEEVGR [R3M], the abundance fitness is -0.158 ± 0.057.

RRRVRAILPYTKVPDTDECSFLKGDMFIVHNELEDGWMWVTNLRTDEQGLIVEDLVEEVGR [I19C]: the abundance fitness was -0.451 ± 0.028.

As for RRRVRAILPYTKVPDTDEYSFLKGDMFIVHNELEDGWMWVTNLRTDEQGLIVEDLVEEVGR [I19Y], the abundance fitness was -0.86 ± 0.043.

As for RRRVHAILPYTKVPDTDEISFLKGDMFIVHNELEDGWMWVTNLRTDEQGLIVEDLVEEVGR [R5H], the abundance fitness is -0.398 ± 0.036.

For RRRVGAILPYTKVPDTDEISFLKGDMFIVHNELEDGWMWVTNLRTDEQGLIVEDLVEEVGR [R5G], the abundance fitness is -0.796 ± 0.045.

On to RRRVRAILPYTKVPDTDEISFLKGDMFIVHNELEDGWMWVTNLRTDEQGKIVEDLVEEVGR [L50K], for which the abundance fitness stood at 0.131 ± 0.063.

For the variant RRRVRAILPYTKVPDTDEISFLKGDMFIVHNELEDGWMWVTNLRTDEQGDIVEDLVEEVGR [L50D], the abundance fitness is -0.958 ± 0.055.

On to RRRVRAILPYTKVPDTDEISFLKGDMFIVHNELEDGPMWVTNLRTDEQGLIVEDLVEEVGR [W37P], for which the abundance fitness is -0.795 ± 0.037.

For RRRVRAILPYTKVPDTDEISFLKGDMFIVHNELEDGWMWVTNLRKDEQGLIVEDLVEEVGR [T45K], the abundance fitness is -1.05 ± 0.13.

With RRRVRAILPYTKVPDTDEISFLKGDMFIVHNELEDGWMWVTNLRHDEQGLIVEDLVEEVGR [T45H], the abundance fitness was -0.769 ± 0.046.

RRRVRAILPYTKVPDTDEISFLKGDMFIVHNELEDGWMWVTNLRSDEQGLIVEDLVEEVGR [T45S]: the abundance fitness is -0.098 ± 0.024.

In the case of RRRVRAILPYTKVPDTDEISFLKGDMFIVHNEMEDGWMWVTNLRTDEQGLIVEDLVEEVGR [L33M], the abundance fitness is -0.099 ± 0.055.

With RRRVRAILPYTKVPDTDEISFLKGDMFIVHNEYEDGWMWVTNLRTDEQGLIVEDLVEEVGR [L33Y], the abundance fitness is -0.051 ± 0.027.

Regarding RRRVRAILPYTKVPDTDEISFLKGDMFIVHNEIEDGWMWVTNLRTDEQGLIVEDLVEEVGR [L33I], the abundance fitness is -0.075 ± 0.028.

For the variant RRRVRAILPYTKVPDTDEISFLKGDMFQVHNELEDGWMWVTNLRTDEQGLIVEDLVEEVGR [I28Q], the abundance fitness was -0.047 ± 0.042.

For RRRVRAILPYTKVPDTDEISFLKGDMFRVHNELEDGWMWVTNLRTDEQGLIVEDLVEEVGR [I28R], the abundance fitness was -0.206 ± 0.021.

RRRVRALLPYTKVPDTDEISFLKGDMFIVHNELEDGWMWVTNLRTDEQGLIVEDLVEEVGR [I7L]: the abundance fitness is -0.066 ± 0.03.

Consider RRRVRAMLPYTKVPDTDEISFLKGDMFIVHNELEDGWMWVTNLRTDEQGLIVEDLVEEVGR [I7M], for which the abundance fitness is -0.167 ± 0.065.

Take RRRIRAILPYTKVPDTDEISFLKGDMFIVHNELEDGWMWVTNLRTDEQGLIVEDLVEEVGR [V4I]: the abundance fitness is -0.205 ± 0.023.

In the case of RRRERAILPYTKVPDTDEISFLKGDMFIVHNELEDGWMWVTNLRTDEQGLIVEDLVEEVGR [V4E], the abundance fitness was -0.929 ± 0.074.

As to RRRLRAILPYTKVPDTDEISFLKGDMFIVHNELEDGWMWVTNLRTDEQGLIVEDLVEEVGR [V4L], the abundance fitness was -0.055 ± 0.021.

For the variant RRRVRAILPYTKVPDTDEISFLKGDMFIVHNELEDGWMWVTNLRTDEQGLIVIDLVEEVGR [E53I], the abundance fitness is -0.052 ± 0.03.

On to RRRVRAILPYTKVPDTDEISFLKGDMFIVHNELEDGWMWVTNLRTDEQGLIVSDLVEEVGR [E53S], for which the abundance fitness was 0.021 ± 0.025.

For RRRVRAILPYTKVPDTDEISFLKGDMFIVLNELEDGWMWVTNLRTDEQGLIVEDLVEEVGR [H30L], the abundance fitness was -0.085 ± 0.03.

Consider RRRVRAILPYTKVPDTDEISFLKGDMFIVHNELEDGWMWVTNLRTTEQGLIVEDLVEEVGR [D46T], for which the abundance fitness was -0.029 ± 0.028.

Consider RRRVRAILPYTKVPDTDEISFLKGDMFIVHNELEDGWMWVTNLRTPEQGLIVEDLVEEVGR [D46P], for which the abundance fitness was -0.864 ± 0.072.

On to RRRVRAILPYTYVPDTDEISFLKGDMFIVHNELEDGWMWVTNLRTDEQGLIVEDLVEEVGR [K12Y], for which the abundance fitness was -0.824 ± 0.044.

On to RRRVRAILPYTLVPDTDEISFLKGDMFIVHNELEDGWMWVTNLRTDEQGLIVEDLVEEVGR [K12L], for which the abundance fitness was -0.779 ± 0.041.

Take RRRVRAILPYTKVPDTDEISFLKGDMFIVHNELEDGWMWVTNLQTDEQGLIVEDLVEEVGR [R44Q]: the abundance fitness is -0.314 ± 0.12.

In the case of RRRVRAILPYTKVEDTDEISFLKGDMFIVHNELEDGWMWVTNLRTDEQGLIVEDLVEEVGR [P14E], the abundance fitness is -0.06 ± 0.066.

In the case of RRRVRAILPYTKVGDTDEISFLKGDMFIVHNELEDGWMWVTNLRTDEQGLIVEDLVEEVGR [P14G], the abundance fitness was -0.089 ± 0.025.

In the case of RRRVRAILPYTKVVDTDEISFLKGDMFIVHNELEDGWMWVTNLRTDEQGLIVEDLVEEVGR [P14V], the abundance fitness was -0.101 ± 0.027.

For RRRVRAILPYTKVQDTDEISFLKGDMFIVHNELEDGWMWVTNLRTDEQGLIVEDLVEEVGR [P14Q], the abundance fitness is -0.055 ± 0.074.

As for RRRVRAILPYTKVYDTDEISFLKGDMFIVHNELEDGWMWVTNLRTDEQGLIVEDLVEEVGR [P14Y], the abundance fitness was -0.295 ± 0.033.

The values above are taken from the Human Domainome abundance scans (Beltran et al. 2025).
